Experimental data as given in US20230348616A1 (MIE UNIVERSITY, published 2023).

Key:
[1] = target: HLA-A2/NY-ESO peptide complex presented on cells (human); assay: cell-based or functional assay
[2] = target: HLA-A2/NY-ESO peptide complex presented on cells (human); assay: cell-based or functional assay; remark: listed apart in the source
gp100 [3] = target: T1, gp100 (human); assay: flow cytometry, CD3e knockout T2 cells pulsed with 50 µM peptide, antibody at 100 nM, PE anti-human IgG; gMFI standardized to the HLA/peptide amount; DMSO-only cells 1.15
T1 construct: cell surface; unrelated control peptide; also called HLA-A2 / gp100 peptide complex on CD3e knockout T2 cells
Protocol: (§1) The cells were washed 2 times in PBS containing 5% FBS, PE conjugated F(ab′)2 Fragment Anti-Human IgG (Jackson Immuno Research Laboratories) diluted with PBS containing 5% FBS was added at 25 μl/well, and the resultant was allowed to stand at 4° C. for 30 minutes. The cells were washed 2 times in PBS containing 5% FBS, immobilized with Mildform 10 N (FUJIFILM Wako Pure Chemical Corporation) overnight, and resuspended in PBS containing 5% FBS. […] The cells were washed 2 times in PBS containing 5% FBS, immobilized with Mildform 10 N (FUJIFILM Wako Pure Chemical Corporation) overnight, and resuspended in PBS containing 5% FBS. The cell suspensions were subjected to detection using a flow cytometer (CantoII, Becton Dickinson). […] The standardized gMFI indicating the binding affinity of each Fc-conjugated anti-HLA-A2/NY-ESO-anti-CD3 bispecific molecule standardized with the amount of the HLA/peptide complex on the CD3e knockout T2 cells was determined in accordance with the following equation.

[4] = target: T2, HLA-A2/NY-ESO peptide complex presented on cells (human); assay: as above
T2 construct: whole, on cells; also called HLA/NY-ESO; T2 cells supplemented with the NY-ESO peptide
Protocol: as §1

1F = target: T3, 1F (human); assay: as above
T3 construct: cell surface; also called HLA-A2 / point-mutant NY-ESO peptide 1F complex on CD3e knockout T2 cells
Protocol: as §1

[5] = target: T4, HLA-A*0201/β2-microglobulin/NY-ESO peptide complex (human, biotinylated with E. coli biotin ligase at the added recognition sequence (biotinylated form used in the ELISA)); assay: SPR (Biacore T200), bispecific captured by anti-human IgG (Fc) antibody, HLA/NY-ESO as analyte, single cycle kinetics
T4 construct: also called HLA/NY-ESO; HLA-A2/NY-ESO
Protocol: With the use of Biacore T200, various Fc-conjugated anti-HLA/NY-ESO-anti-CD3 bispecific molecules were captured as ligands to the immobilized anti-human IgG (Fc) antibody, and the antigen was assayed as an analyte. […] The anti-human IgG (Fc) antibody (Human antibody Capture kit, GE Healthcare) was immobilized on Sensor Chip CM5 (GE Healthcare) in accordance with the instructions of the kit. The Fc-conjugated anti-HLA/NY-ESO-anti-CD3 bispecific molecules diluted to 0.5 g/ml in HBS-EP+(GE Healthcare) to be evaluated were brought into contact therewith at 10 μl/min for 60 seconds for immobilization. Thereafter, the samples were added to the HLA/NY-ESO analytes diluted to various levels with HBS-EP+ at a flow rate of 30 μl/min for 120 seconds and dissociation was assayed for 600 seconds.

[6] = target: T5, HLA-A2 / homologous peptide IL20RB complex on T2 cells (human); assay: flow cytometry, CD3e knockout T2 cells pulsed with 50 µM peptide, antibody at 100 nM, PE anti-human IgG; gMFI standardized to the HLA/peptide amount; DMSO-only cells 1.19
T5 construct: whole, on cells; also called T2 cells supplemented with homologous peptide IL20RB
Description: (§2) The cells were washed 2 times in PBS containing 5% FBS, immobilized with Mildform 10 N (FUJIFILM Wako Pure Chemical Corporation) overnight, and resuspended in PBS containing 5% FBS. The cell suspensions were subjected to detection using a flow cytometer (CantoII, Becton Dickinson). […] The standardized gMFI indicating the binding affinity of each Fc-conjugated anti-HLA-A2/NY-ESO-anti-CD3 bispecific molecule standardized with the amount of the HLA/peptide complex on the CD3e knockout T2 cells was determined in accordance with the following equation.
(§3) The standardized gMFI indicating the binding affinity of each Fc-conjugated anti-HLA-A2/NY-ESO-anti-CD3 bispecific molecule standardized with the amount of the HLA/peptide complex on the CD3e knockout T2 cells was determined in accordance with the following equation.

gp100 [7] = target: T1, gp100; assay: as above
Description: as §2, §3

[8] = target: T6, HLA-A2 / homologous peptide PRKD2 complex on T2 cells (human); assay: as above
T6 construct: whole, on cells; also called T2 cells supplemented with homologous peptide PRKD2
Description: as §2, §3

[9] = target: T2, HLA-A2/NY-ESO peptide complex presented …; assay: as above
Description: as §2, §3

[10] = target: T7, HLA-A2 / homologous peptide CD163 complex on T2 cells (human); assay: as above
T7 construct: whole, on cells; also called T2 cells supplemented with homologous peptide CD163
Description: as §2, §3

[11] = target: T8, HLA-A2 / homologous peptide P2RY8 complex on T2 cells (human); assay: as above
T8 construct: whole, on cells; also called T2 cells supplemented with homologous peptide P2RY8
Description: as §2, §3

[12] = target: T9, HLA-A2 / homologous peptide DOLPP1 complex on T2 cells (human); assay: as above
T9 construct: whole, on cells; also called T2 cells supplemented with homologous peptide DOLPP1
Description: as §2, §3

[13] = target: T4, HLA-A*0201/β2-microglobulin/NY-ESO …; assay: SPR (Biacore T200), scFv captured by anti-His antibody, HLA/NY-ESO as analyte, single cycle kinetics
Protocol: With the use of Biacore T200, the anti-HLA/NY-ESO scFv was captured as a ligand to the immobilized anti-His antibody, and the antigen was assayed as an analyte. As the antigen, HLA/NY-ESO prepared in 1)-1 was used. The anti-His antibody (His Capture kit, Cytiva) was immobilized on Sensor Chip CM5 (Cytiva) in accordance with the instructions of the kit. The anti-HLA/NY-ESO scFv constructs diluted to 0.5 μg/ml in HBS-EP+(Cytiva) to be evaluated were brought into contact therewith at 10 μl/min for 60 seconds for immobilization. Thereafter, the samples were added to the HLA/NY-ESO analytes diluted to various levels with HBS-EP+ at a flow rate of 30 μl/min for 120 seconds and dissociation was assayed for 600 seconds.

Binder	EC50 of cytotoxicity on U266B1 cells (51Cr release, human PBMC effectors) [1]	EC50 of cytotoxicity on NCI-H1703 cells (51Cr release, human PBMC effectors) [2]	standardized gMFI (gp100 [3])	standardized gMFI [4]	standardized gMFI (1F)	Kd [5]	standardized gMFI [6]	standardized gMFI (gp100 [7])	standardized gMFI [8]	standardized gMFI [9]	standardized gMFI [10]	standardized gMFI [11]	standardized gMFI [12]	Kd [13]
NYZ-1010 (bispecific antibody, human IgG1, lambda, L234A L235A) chain 1: not shown chain 2: not shown light: NFMLTQPSSVSGVPGQRVTISCTGNTGNIGSNYVNWYQQLPGTAPKLLIYRDDKRPSGVPDRFSGSKSGTSASLAITGFQAEDEADYYCQSYSSGFIFGGGTKLTVLGQPKAAPSVTLFPPSSEELQANKATLVCLISDFYPGAVTVAWKADSSPVKAGVETTTPSKQSNNKYAASSYLSLTPEQWKSHRSYSCQVTHEGSTVEKTVAPTECS	0.96 nM	2.56 nM	0.53	43.3	0.86	1.9 nM	0.88	0.54	0.54	44.4	0.67	0.95	0.7	–
NYC-0008 (scFv, Captured by anti-His antibody in SPR; also called scFv of mAb28105P) scFv: GEVQLVESGGGVVQPGGSLRLSCEASGFIFDDYAMHWVRQAPGKGLEWVSLISGDGDIIYYADSVKGRFTISRDNSKNSLYLQMNSLIIEDTALYYCAKDWVFGVVMTHYWYFGLDVWGQGTTVTVSSGGGGSGGGGSGGGGSDIQMTQSPSSLSASEGDRVTITCRASQSISTYLNWYQQKPGKAPKLLIYGASSLQSGVPSRFSGSGSGTDFTLTISSLQPEDFATYYCQQSYSTPPITFGQGTKVEIKGAAAGAGGDYKDDDDKGAAAHHHHHH	–	–	–	–	–	–	–	–	–	–	–	–	–	7.9 nM
